Measurements as given in paper PMC6686036, “Structural Basis for the Differential Regulatory Roles of the PDZ Domain in C-Terminal Processing Proteases” (mBio, 2019).

Tests used:
Experiment in all cases: crystal structure; purified Prc mutant and sNlpI mixed in a 1:2 molar ratio, complex isolated on Superdex 200 (25 mM Tris-HCl pH 8.0, 150 mM NaCl); hanging-drop vapor diffusion at 22°C (16°C for sNlpI–Prc-ΔPDZ)
[1] = target: T1, Prc-ΔPDZ (Prc with the deletion of residues 247 to 339) (E. coli, UniProt P23865 23-682, Δ247-339); conditions: both partners purified
T1 construct: Prc (Tsp), tail-specific C-terminal processing protease of E. coli, with the PDZ domain (residues 247 to 339) deleted; cloned into pTrc99A; also called Prc-PDZ; source: E. coli ΔPrc cells (strain MR812), purified (Ni-NTA, Mono Q, Superdex 200 with sNlpI)
T1 sequence (looked up): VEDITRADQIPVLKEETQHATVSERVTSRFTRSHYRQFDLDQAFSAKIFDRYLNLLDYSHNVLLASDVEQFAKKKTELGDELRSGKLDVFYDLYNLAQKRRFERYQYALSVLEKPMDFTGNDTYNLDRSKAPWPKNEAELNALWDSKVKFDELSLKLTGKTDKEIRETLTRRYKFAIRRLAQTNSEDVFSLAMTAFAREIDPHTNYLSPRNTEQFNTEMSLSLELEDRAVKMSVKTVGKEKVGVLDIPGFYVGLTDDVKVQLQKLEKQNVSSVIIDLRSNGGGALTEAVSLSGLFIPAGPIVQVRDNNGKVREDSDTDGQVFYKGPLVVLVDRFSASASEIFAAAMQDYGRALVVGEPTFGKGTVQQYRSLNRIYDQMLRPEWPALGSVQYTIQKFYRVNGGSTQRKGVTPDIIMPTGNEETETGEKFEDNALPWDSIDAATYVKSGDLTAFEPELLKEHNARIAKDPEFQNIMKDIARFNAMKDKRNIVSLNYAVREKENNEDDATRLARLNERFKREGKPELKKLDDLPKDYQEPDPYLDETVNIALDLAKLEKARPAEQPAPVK

Prc-L245A/L340G = target: T2, Prc-L245A/L340G (E. coli, UniProt P23865 23-682, L245A | L340G); conditions: both partners purified
T2 construct: also called Prc L245A/L340G double mutant; source: E. coli ΔPrc cells (strain MR812), purified (Ni-NTA, Mono Q, Superdex 200 with sNlpI)
T2 sequence (looked up): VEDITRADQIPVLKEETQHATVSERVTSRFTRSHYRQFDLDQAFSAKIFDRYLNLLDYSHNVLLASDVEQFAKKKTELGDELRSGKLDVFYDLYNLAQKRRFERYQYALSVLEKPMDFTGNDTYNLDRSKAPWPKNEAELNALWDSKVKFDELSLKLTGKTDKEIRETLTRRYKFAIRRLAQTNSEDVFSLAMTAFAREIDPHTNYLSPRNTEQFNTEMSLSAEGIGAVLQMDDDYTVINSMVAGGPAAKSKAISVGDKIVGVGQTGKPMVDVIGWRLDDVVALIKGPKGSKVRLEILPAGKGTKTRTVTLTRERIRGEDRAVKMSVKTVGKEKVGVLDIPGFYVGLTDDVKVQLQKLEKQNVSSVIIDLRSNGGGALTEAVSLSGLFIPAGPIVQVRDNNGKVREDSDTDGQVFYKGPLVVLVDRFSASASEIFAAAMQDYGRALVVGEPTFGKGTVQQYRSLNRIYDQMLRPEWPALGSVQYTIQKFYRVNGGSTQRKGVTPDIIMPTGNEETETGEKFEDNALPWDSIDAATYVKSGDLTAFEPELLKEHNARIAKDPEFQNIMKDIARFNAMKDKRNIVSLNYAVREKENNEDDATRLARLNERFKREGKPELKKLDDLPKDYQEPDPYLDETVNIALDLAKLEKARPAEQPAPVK

Prc-S452I/L252Y = target: T3, Prc-S452I/L252Y (E. coli, UniProt P23865 23-682, S452I | L252Y); conditions: both partners purified
T3 construct: also called Prc S452I/L252Y double mutant; unliganded resting Prc; source: E. coli ΔPrc cells (strain MR812), purified (Ni-NTA, Mono Q, Superdex 200 with sNlpI)
T3 sequence (looked up): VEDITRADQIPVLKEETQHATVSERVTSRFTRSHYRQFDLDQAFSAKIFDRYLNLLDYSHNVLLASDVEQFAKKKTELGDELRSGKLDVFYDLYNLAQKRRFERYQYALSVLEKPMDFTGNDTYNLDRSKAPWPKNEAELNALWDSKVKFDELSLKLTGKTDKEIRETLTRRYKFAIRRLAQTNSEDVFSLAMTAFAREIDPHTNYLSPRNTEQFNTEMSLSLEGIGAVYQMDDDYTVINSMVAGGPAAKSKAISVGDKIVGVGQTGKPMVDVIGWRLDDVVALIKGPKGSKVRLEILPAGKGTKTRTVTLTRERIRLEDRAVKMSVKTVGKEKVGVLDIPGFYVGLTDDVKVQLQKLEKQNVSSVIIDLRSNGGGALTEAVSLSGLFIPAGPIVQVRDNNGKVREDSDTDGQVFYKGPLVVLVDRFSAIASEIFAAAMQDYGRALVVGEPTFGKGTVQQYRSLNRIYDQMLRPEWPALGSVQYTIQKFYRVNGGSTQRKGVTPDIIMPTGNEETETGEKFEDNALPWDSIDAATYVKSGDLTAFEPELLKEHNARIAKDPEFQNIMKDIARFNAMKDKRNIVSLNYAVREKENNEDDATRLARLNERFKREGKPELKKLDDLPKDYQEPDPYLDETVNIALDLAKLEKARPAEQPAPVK

[2] = target: the molecule itself

binding result [1]: binds
binding result (Prc-L245A/L340G): binds
binding result (Prc-S452I/L252Y): binds
B1: soluble form of NlpI (sNlpI) (natural protein, E. coli, UniProt P0AFB1 19-294, looked up)
chain: CSNTSWRKSEVLAVPLQPTLQQEVILARMEQILASRALTDDERAQLLYERGVLYDSLGLRALARNDFSQALAIRPDMPEVFNYLGIYLTQAGNFDAAYEAFDSVLELDPTYNYAHLNRGIALYYGGRDKLAQDDLLAFYQDDPNDPFRSLWLYLAEQKLDEKQAKEVLKQHFEKSDKEQWGWNIVEFYLGNISEQTLMERLKADATDNTSLAEHLSETNFYLGKYYLSLGDLDSATALFKLAVANNVHNFVEHRYALLELSLLGQDQDDLAESDQQ
notes: NlpI of E. coli without its lipoprotein signal peptide (expressed without the lipid anchor); a TEV protease cleavage site follows the N-terminal His tag; source: E. coli BL21(λDE3), purified (Ni-NTA, Mono Q, Superdex 200 with Prc)
stoichiometry N [2]: 2
